Measured values: patent publication US20100150950A1, “HUMAN ANTIBODIES THAT BIND CD70 AND USES THEREOF” (Medarex, Inc., priority 2006, published 2010)
Where a chain is given by its changes, count along the chain named.

Columns and labels:
[1] = target: T1, CD70 expressed on the surface of Raji lymphoma cells (Homo sapiens, UniProt P32970); assay: Flow cytometry binding to Raji cells; conditions: antibody 10 μg/ml
T1 construct: endogenous in cells; host or cells: Daudi (ATCC CCL-213), HuT 78 (TIB-161), Raji (CCL-86), Granta 519 (DSMZ 342)
T1 sequence (P32970 1-193): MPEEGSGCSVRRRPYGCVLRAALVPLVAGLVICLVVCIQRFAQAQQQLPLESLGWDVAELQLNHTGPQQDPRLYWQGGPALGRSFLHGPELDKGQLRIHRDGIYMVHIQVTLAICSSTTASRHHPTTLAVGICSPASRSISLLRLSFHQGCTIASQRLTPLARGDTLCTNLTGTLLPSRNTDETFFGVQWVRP
Procedure: Anti-CD70 antibodies were tested for binding to lymphoma cells expressing CD70 on their cell surface by flow cytometry.
The lymphoma cell lines Daudi (ATCC Accession No. CCL-213), HuT 78 (ATCC Accession No. TIB-161) and Raji (ATCC Accession No. CCL-86) were each tested for antibody binding. Binding of the HuMAb 2H5 anti-CD70 human monoclonal antibody was assessed by incubating 1×10^5 cells with 2H5 at a concentration of 1 μg/ml. The cells were washed and binding was detected with a FITC-labeled anti-human IgG Ab. […] Flow cytometric analyses were performed using a FACSCalibur flow cytometry (Becton Dickinson, San Jose, Calif.). The anti-CD70 monoclonal antibody 2H5 bound to the lymphoma cell lines Daudi, HuT 78 and Raji, as measured by the mean fluorescent intensity (MFI) of staining.
The lymphoma cell lines Raji and Granta 519 (DSMZ Accession No. 342) were tested for binding of the HuMAb anti-CD70 human monoclonal antibody 2H5 at varying concentrations. Binding of the anti-CD70 human monoclonal antibodies was assessed by incubating 5×10^5 cells with antibody at a starting concentration of 50 μg/ml and serially diluting the antibody at a 1:3 dilution. An isotype control antibody was used as a negative control. The cells were washed and binding was detected with a PE-labeled anti-human IgG Ab. […]

[2] = target: T2, CD70+ renal carcinoma 786-O cells (Homo sapiens, UniProt P32970); assay: Blocking of mouse anti-CD70 antibody BU-69 binding; conditions: BU-69 1 μg/ml; 69A7 1, 5 or 10 μg/ml
T2 construct: natively expressing CD70+ human cancer cell line 786-0 cells; endogenous in cells; host or cells: 786-O (ATCC CRL-1932), A-498 (HTB-44), ACHN (CRL-1611), Caki-1 (HTB-46), Caki-2 (HTB-47)
T2 sequence (P32970 1-193): T1 sequence (P32970 1-193)
Procedure: In this experiment, the HuMAb anti-CD70 antibody 69A7 was tested for its ability to block binding of a known mouse anti-CD70 antibody to CD70+renal carcinoma 786-O cells. 786-O cells were incubated with the mouse anti-CD70 antibody BU-69 (Ancell, Bayport, Minn.) at 1 μg/ml and the HuMAb 69A7 at 1, 5 or 10 μg/ml for 20 minutes on ice. IgG1 and IgG2 isotype control antibodies were used as negative controls. The cells were washed twice and binding was detected with a FITC-labeled anti-human IgG Ab. Flow cytometric analyses were performed using a FACSCalibur flow cytometry (Becton Dickinson, San Jose, Calif.).

[3] = tested on: CD70 costimulation of human CD3+ T cells; assay: CD70 co-stimulated human T cell proliferation and IFN-γ secretion; type: cell-based; conditions: CHO-S/mCD32/CD70 cells + anti-hCD3, 3 days
Procedure: In this experiment, the HuMAb anti-CD70 antibody 2H5 was tested for inhibition of inflammatory responses. CHO-S cells stably transfected with mouse CD32 (CHO-S/mCD32 cells) were transiently transfected with a full length human CD70 construct (CHO-S/mCD32/CD70 cells). Surface expression was confirmed by flow cytometry using 2A5 and PE conjugated anti-human IgG secondary Ab (data not shown). RosetteSep® Human T Cell Enrichment Kit (Cat# 15061; StemCell Technologies Inc) purified human peripheral blood CD3^+ T cells were stimulated in vitro at 1×10^6/well with 1×10^5 CHO-S/mCD32 or CHO-S/mCD32/CD70 cells/well, 1μg/ml anti-hCD3 (clone OKT3; BD Bioscience) and serial dilutions of either the HuMAb 2H5 or non-fucosylated 2H5 (2H5 NF) in triplicate wells of a 96 well plate. After 3 days supernatant aliquots were collected and interferon-gamma (INF-γ) secretion was measured by a quantitative ELISA kit (BD Biosciences). The plates were pulsed with 1 μCi/ml of ^3H-thymidine, incubated for 8 hours, cells were harvested and ^3H-thymidine incorporation was read on a Trilux® 1450 Microbeta Counter (Wallac, Inc.). An IgG1 isotype control antibody was used as a negative control. […] Data also show 2H5 inhibition is specific to CD70 costimulation as 2H5 had no effect on anti-CD3^+ CHO-S/mCD32 mediated proliferation. […]

B1: anti-CD70 human monoclonal antibody 69A7 (antibody, V domains shown)
VH: QVQLQESGPGLVKPSETLSLTCTVSGGSVSSDYYYWSWIRQPPGKGLEWLGYIYYSGSTNYNPSLKSRVTISVDTSKNQFSLKLRSVTTADTAVYYCARGDGDYGGNCFDYWGQGTLVTVSS
VL: EIVLTQSPATLSLSPGERATLSCRASQSVSSYLAWYQQKPGQAPRLLIFDASNRATGIPARFSGSGSGTDFTLTISSLEPEDFAVYYCQQRSNWPLTFGGGTKVEIK
notes: Human IgG from hybridoma; also called HuMAb 69A7; FITC-conjugated 69A7
[1]
  binding to Raji cells (MFI): bound
[2]
  blocking of mouse anti-CD70 antibody BU-69 binding: blocks binding

B2: 2H5 NF: 2H5 HuMAb lacking fucosyl residues, expressed in CHO cell line Ms704-PF (antibody, V domains shown)
VH: QVQLVESGGGVVQPGRSLRLSCAASGFTFSSYIMHWVRQAPGKGLEWVAVISYDGRNKYYADSVKGRFTISRDNSKNTLYLQMNSLRAEDTAVYYCARDTDGYDFDYWGQGTLVTVSS
VL: B1 VL with F49Y, S92T
[3]
  CD70 co-stimulated INF-γ secretion: completely inhibited
  CD70 co-stimulated proliferation: completely inhibited
